Test results: patent publication US20120301469A1 (Ablynx, published 2012)
Where a chain is given by its changes, count along the chain named.

B1: Nanobody 1E4 (VHH)
VHH: EVQLVESGGGLVQAGGSLRLSCEASGRTFSSYGMGWFRQAPGKEREFVAAVSRLSGPRTVYADSVKGRFTISRDNAENTVYLQMNSLKPEDTAVYTCAAELTNRNPGAYYYTWAYDYWGQGTQVTVSS
notes: also called PMP1E4; PRSV1E4
B2: Nanobody 20B2 (VHH)
VHH: B1 VHH with G33D, S52T, L54W, P57A, T59G, Y81H, E100D, L101S, P106S, Y109V
notes: also called PMP20B2; PR5V20B2
B3: Nanobody 1A6 (VHH)
VHH: EVQLVESGGGLVQAGGSLRLSCAASGRTFSSYAMGWFRQAPGKEREFVAAIWWSGGSTYYADSVKGRFTMSRDNAKNTVYLEMNNLKPEDTAVYYCAADTDSSNSGSYLYTWAYDYWGQGTQVTVSS
notes: also called PMP1A6; PRSV1A6
B4: Nanobody 1G8 (VHH)
VHH: EVQLVESGGGSVQAGGSLRLSCAASGGSFNRFGMGWFRRAPGKERDFVAAINLSGDTTYYVDSVQGRFTISRDNANNIMYLQMNLLKPEDTADYYCAADPDPITAWKQSGAGMDYWGKGTQVTVSS
notes: also called PMP1G8; PRSV1G8
B5: Nanobody 20C1 (VHH)
VHH: EVQLVESGGGLVQAGGSLRLSCAASGRTFSSFAMGWFRQAPGKEREFVAAISWSGGSTYYADSVKGRFTISGDNAKNTMYLQMNSLKPEDTAVYYCAADSEILNSGAYYYPWAYVYWGQGTQVTVSS
notes: also called PMP20C1; PRSV20C1
B6: Nanobody 1A2 (VHH)
VHH: EVQLVESGGGLVQAGGSLRLSCAASERTFSYYAMGWFRQAPGKEREFVATISRSGEWIYYKDAMKGRFTISRDNANNAVYLQMNSLQPEDTAIYYCAADSLGGFRSASDYYNTNTYAYWGQGTQVTVSS
notes: also called PMP1A2; PRSV1A2
B7: Nanobody 8B10 (VHH)
VHH: EVQLVESGGGLVQAGASLRLSCAASGLAFSRYAMGWFRQAPGKERESVAAISSSGDNIYYADSVKGQFTMSRDNAKSSVYLQMINLKPEDTAVYYCAATSPLFVASDYFEASRYGYWGQGTQVTVSS
notes: also called PMP8B10; PRSV8B10
B8: Nanobody 13C1 (VHH)
VHH: EVQLVESGGGLVQPGGSLRLSCEASGFTWDYYVIGWFRQAPGKEREGLSCISSDGSTTYADSVKGRFTISRDNAKNTVYLQMNSLEPEDTAVYYCATDPALGCYSGSYYPRYDYWGQGTQVTVSS
notes: also called PMP13C1; PRSV13C1
B9: Nanobody 13E12 (VHH)
VHH: EVQLVESGGGLVQAGGSLRLSCAASGRTFSRYIMGWFRQAPGKEREFVGAISRSGDITSFADFVKGRFTMSRDNAKNTLYLQMNSLEPEDTAVYSCAANSDTYYIYSDIVVPERYDYWGQGTQVTVSS
notes: also called PMP13E12; PRSV13E12
B10: Nanobody 13B4 (VHH)
VHH: EVQLVESGGGLVQAGGSLRLSCAASGFTFDDYAIGWFRQAPGKEREAVSCISSSDGSTYYADSVKGRFTISSDNAKNMVYLQMNSLKPEDTAVYYCAADLLRTAVGCLDYRGTYYPRTTMDYRGKGTLVTVSS
notes: also called PMP13B4; PRSV13B4
B11: Nanobody 13A1 (VHH)
VHH: EVQLVESGGGLVQPGGSLRLSCAASGLTLDYYALGWFRQAPGKEREGVSCISSADHSTTYADSVKGRFTISWDNAKNTVYLQMNSLKPEDTAVYYCAADPALGCYSGNYYPRYDYWGQGTQVTVSS
notes: also called PMP13A1; PRSV13A1
B12: Nanobody 19E2 (VHH)
VHH: B11 VHH with A54S, S57T, A61T, V79L, N108S, Y115F
notes: also called PMP19E2; PRSV19E2
B13: Nanobody 1B2 (VHH)
VHH: EVQLVESGGGLVQAGGSLRLSCAASGPTFSADTMGWFRQAPGKEREFVATIPWSGGIAYYSDSVKGRFTMSRDNAKNTVDLQMNSLKPEDTALYYCAGSSRIYIYSDSLSERSYDYWGQGTQVTVSS
notes: c-myc/His6-tagged; also called PMP1B2; PRSV1B2
B14: Nanobody 23E5 (VHH)
VHH: EVQLMESGGGLVQAGGSLRLSCAASGGTFSSYAMGWFRQAPGEERDFVAAIGWSGNSPYYAQFVKGRFTISRDNAKNTVHLQMNSLKPEDTAVYYCAAAHNTMGSDYEGYDYWGQGTQVTVSS
notes: also called PMP23E5; PRSV23E5
B15: Nanobody 13D1 (VHH)
VHH: EVQLVESGGGLVQPGGSLRLSCATSGFTEDYYVIGWFRQAPGKEREGVSCMSSSGDSTTYADSVKGRFTISRDNAKNMVYLQMTSLKPEDTAVYYCAADFALGCYSGSYYPRYDYWGQGTQVTVSS
notes: also called PMP13D1; PRSV13D1
B16: Nanobody 8A1 (VHH)
VHH: EVQLVESGGGLVQPGGSLRVSCAASGFTFNDYIMGWFRQAPGKERMFIAAISGTGTIKYYGDLVRGRFTISRDNAKNTVYLRIDSLNPEDTAVYYCAARQDYGLGYRESHEYDYWGQGTQVTVSS
notes: also called PMP8A1; PRSV8A1

What follows are binders tested against T1, protein F of hRSV strain B-1 (on RSV B-1-infected Hep2 cells and on virus) (human respiratory syncytial virus, …, UniProt P13843 26-574) (assay: cell-based or functional assay).

B1 and B2 cannot be ordered by “micro-neutralization of RSV B-1” value: over 10 µM for the first, over 10 µM for the second.

B3 and B4 cannot be ordered by “micro-neutralization of RSV B-1” value: over 10 µM for the first, over 10 µM for the second.

In the case of B5, the “micro-neutralization of RSV B-1” value is reported as over 10 µM.

What follows are binders tested against protein F of hRSV strain Long, on virus (inactivated hRSV Long, Hytest #8RSV79; RSV Long LM-2, ATCC VR-26) (human respiratory syncytial virus, …, UniProt P12568 26-574) (assay: cell-based or functional assay).

Point of comparison: B4, “Neutralization Long IC50” value 10 µM. Against it:
- B2 — 5.7-fold lower, 1.76 µM
- B3 — 2.2-fold lower, 4.5 µM
- B5 — 1.9-fold lower, 5.29 µM

Biological target: T1, protein F of hRSV strain B-1 (on RSV …)
Assay: cell-based or functional assay
Remark: another data set of the same source

Point of comparison: B13, “Neutralization B-1 IC50” value 7.38 µM. Against it:
- B6 — 1.9-fold higher, 13.7 µM
- B1 — higher, > 10 µM
- B2 — higher, > 10 µM
- B7 — higher, > 15 µM
- B8 — 1.5-fold higher, 11.4 µM
- B9 — 1.7-fold higher, 12.3 µM
- B10 — higher, > 15 µM
- B11 — within 1.5-fold, 6.16 µM
- B12 — 1.6-fold lower, 4.55 µM
- B3 — higher, > 10 µM
- B14 — higher, > 15 µM
- B4 — higher, > 10 µM
- B5 — higher, > 10 µM
- B15 — within 1.5-fold, 5.85 µM
- B16 — 1.7-fold higher, 12.2 µM

The binders below were run against T2, hRSV FTM-NN (membrane anchorless form of the Long fusion protein, 70 kDa) (human respiratory syncytial virus, …, UniProt P12568 26-524) (assay: ELISA on immobilized FTM-NN, periplasmic extract 1:10).
T2 construct: also called FTM-NN (Long); hRSV FTM-protein

Point of comparison: B8, “Binding Long 1:10 PE (Fold blanc)” value 3 fold blanc. Against it:
- B6 — higher, 4 fold blanc
- B2 — the same, 3 fold blanc
- B9 — higher, 3.7 fold blanc
- B10 — lower, 2.7 fold blanc
- B11 — lower, 2.9 fold blanc
- B12 — higher, 3.5 fold blanc
- B3 — higher, 4.2 fold blanc
- B13 — higher, 3.8 fold blanc
- B14 — higher, 3.4 fold blanc
- B4 — higher, 3.7 fold blanc
- B5 — lower, 2.7 fold blanc
- B15 — higher, 3.1 fold blanc
- B16 — higher, 3.7 fold blanc

The binders below were run against T2, hRSV FTM-NN (membrane anchorless form …) (assay: SPR (Biacore), FTM-NN amine-coupled on CM5 chip, 1:1 Langmuir fit).

Point of comparison: B12, Kd 0.00052 µM. Against it:
- B9 — 2.9-fold higher, 0.0015 µM
- B11 — within 1.5-fold, 0.00061 µM
- B13 — within 1.5-fold, 0.00044 µM
- B14 — 15-fold higher, 0.0079 µM

Point of comparison: B13, koff 0.00017 s⁻¹. Against it:
- B9 — within 1.5-fold, 0.00016 s⁻¹
- B11 — 2.1-fold higher, 0.00035 s⁻¹
- B12 — within 1.5-fold, 0.00024 s⁻¹
- B14 — 7.6-fold higher, 0.0013 s⁻¹

Point of comparison: B14, kon 160000 M⁻¹ s⁻¹. Against it:
- B9 — within 1.5-fold, 110000 M⁻¹ s⁻¹
- B11 — 3.6-fold higher, 570000 M⁻¹ s⁻¹
- B12 — 2.9-fold higher, 460000 M⁻¹ s⁻¹
- B13 — 2.4-fold higher, 380000 M⁻¹ s⁻¹

These binders were tested against T1, protein F of hRSV strain B-1 (on RSV …) (assay: cell ELISA on RSV B-1-infected Hep2 cells, periplasmic extract 1:50).

Point of comparison: B5, “Binding Hep2-B-1 (% control) 1:50 PE” value 37 % control. Against it:
- B6 — higher, 86 % control
- B1 — higher, 55 % control
- B2 — lower, 32 % control
- B7 — higher, 94 % control
- B8 — higher, 104 % control
- B9 — higher, 97 % control
- B10 — higher, 75 % control
- B11 — higher, 84 % control
- B12 — higher, 87 % control
- B3 — higher, 57 % control
- B13 — higher, 88 % control
- B14 — higher, 103 % control
- B4 — higher, 73 % control
- B15 — higher, 93 % control
- B16 — higher, 98 % control

These binders were tested against T2, hRSV FTM-NN (membrane anchorless form …) (assay: competition ELISA on FTM-NN, competitor 101F Fab, purified Nanobody).

Point of comparison: B14, IC50 0.00173 µM. Against it:
- B6 — 1.7-fold higher, 0.0029 µM
- B8 — 2.2-fold higher, 0.00383 µM
- B9 — 2-fold higher, 0.00352 µM
- B10 — 2.1-fold higher, 0.00369 µM
- B11 — 2.4-fold higher, 0.00423 µM
- B12 — 1.7-fold higher, 0.00293 µM
- B13 — 1.7-fold higher, 0.00291 µM
- B15 — 1.9-fold higher, 0.00337 µM
- B16 — 1.6-fold higher, 0.00281 µM

What follows are binders tested against T1, protein F of hRSV strain B-1 (on RSV …) (assay: cell ELISA on RSV B-1-infected Hep2 cells, periplasmic extract 1:200).

Point of comparison: B5, “Binding Hep2-B-1 (% control) 1:200 PE” value 35 % control. Against it:
- B6 — higher, 66 % control
- B1 — higher, 55 % control
- B2 — lower, 32 % control
- B7 — higher, 84 % control
- B8 — higher, 86 % control
- B9 — higher, 75 % control
- B10 — higher, 56 % control
- B11 — higher, 65 % control
- B12 — higher, 58 % control
- B3 — higher, 39 % control
- B13 — higher, 85 % control
- B14 — higher, 82 % control
- B4 — higher, 43 % control
- B15 — higher, 75 % control
- B16 — higher, 92 % control
